Reference: patent US20140087995A1 (published 2014)
Numbered stars: 1 amine (or outer) side, 2 acyl side, 3 side chain; on linkers, the order of the positions; unused ones are H or OH. Bridge positions count the residues as written; N and C are the ends. Side chains are listed from the residue outwards. Ends that are not written are not given here. * marks the point of attachment. C20 diacid = O=C(O)CCCCCCCCCCCCCCCCCCC(=O)*; γGlu = O=C(O)[C@H](CCC(=O)[*:2])N[*:1]; AEEA = NCCOCCOCC(=O)O

T1: human calcitonin receptor (human, UniProt P30988 25-474)
T1 sequence (looked up): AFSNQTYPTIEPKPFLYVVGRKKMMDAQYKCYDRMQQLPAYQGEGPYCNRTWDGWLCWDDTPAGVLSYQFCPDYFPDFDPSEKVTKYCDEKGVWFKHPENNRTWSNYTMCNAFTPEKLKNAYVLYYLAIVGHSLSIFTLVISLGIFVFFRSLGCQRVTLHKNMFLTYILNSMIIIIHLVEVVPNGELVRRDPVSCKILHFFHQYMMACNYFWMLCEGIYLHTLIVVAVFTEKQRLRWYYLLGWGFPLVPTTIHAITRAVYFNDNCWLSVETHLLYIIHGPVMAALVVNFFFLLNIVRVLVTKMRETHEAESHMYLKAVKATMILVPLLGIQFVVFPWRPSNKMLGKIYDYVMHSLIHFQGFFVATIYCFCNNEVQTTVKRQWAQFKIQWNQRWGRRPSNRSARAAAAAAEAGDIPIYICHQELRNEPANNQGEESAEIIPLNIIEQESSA

B1: N^ε1-[2-[2-[2-[[(4S)-4-carboxy-4-(19-carboxynonadecanoylamino)butanoyl]amino]ethoxy]ethoxy]acetyl]-[Ala14,Arg17,Pro21,Pro27,Pro31]-h-amylin (peptide)
peptide: K([AEEA-γGlu-C20 diacid])CNTATCATQRLAAFLRHSSPNFGAIPSSTPVGSNTY-NH2
modifications: disulfide 2-7; N-terminus assumed
SMILES: CC[C@H](C)[C@H](NC(=O)[C@H](C)NC(=O)CNC(=O)[C@H](Cc1ccccc1)NC(=O)[C@H](CC(N)=O)NC(=O)[C@@H]1CCCN1C(=O)[C@H](CO)NC(=O)[C@H](CO)NC(=O)[C@H](Cc1c[nH]cn1)NC(=O)[C@H](CCCNC(=N)N)NC(=O)[C@H](CC(C)C)NC(=O)[C@H](Cc1ccccc1)NC(=O)[C@H](C)NC(=O)[C@H](C)NC(=O)[C@H](CC(C)C)NC(=O)[C@H](CCCNC(=N)N)NC(=O)[C@H](CCC(N)=O)NC(=O)[C@@H](NC(=O)[C@H](C)NC(=O)[C@@H]1CSSC[C@H](NC(=O)[C@@H](N)CCCCNC(=O)COCCOCCNC(=O)CC[C@H](NC(=O)CCCCCCCCCCCCCCCCCCC(=O)O)C(=O)O)C(=O)N[C@@H](CC(N)=O)C(=O)N[C@@H]([C@@H](C)O)C(=O)N[C@@H](C)C(=O)N[C@@H]([C@@H](C)O)C(=O)N1)[C@@H](C)O)C(=O)N1CCC[C@H]1C(=O)N[C@@H](CO)C(=O)N[C@@H](CO)C(=O)N[C@H](C(=O)N1CCC[C@H]1C(=O)N[C@H](C(=O)NCC(=O)N[C@@H](CO)C(=O)N[C@@H](CC(N)=O)C(=O)N[C@H](C(=O)N[C@@H](Cc1ccc(O)cc1)C(N)=O)[C@@H](C)O)C(C)C)[C@@H](C)O
notes: analogue of human amylin; also called compound 72
B2: N^ε1-[2-[2-[2-[[(4S)-4-carboxy-4-(19-carboxynonadecanoylamino)butanoyl]amino]ethoxy]ethoxy]acetyl]-[Arg14,Arg17,Pro21,Pro27,Pro31]-h-amylin (peptide)
peptide: K([AEEA-γGlu-C20 diacid])CNTATCATQRLARFLRHSSPNFGAIPSSTPVGSNTY-NH2
modifications: disulfide 2-7; N-terminus assumed
SMILES: CC[C@H](C)[C@H](NC(=O)[C@H](C)NC(=O)CNC(=O)[C@H](Cc1ccccc1)NC(=O)[C@H](CC(N)=O)NC(=O)[C@@H]1CCCN1C(=O)[C@H](CO)NC(=O)[C@H](CO)NC(=O)[C@H](Cc1c[nH]cn1)NC(=O)[C@H](CCCNC(=N)N)NC(=O)[C@H](CC(C)C)NC(=O)[C@H](Cc1ccccc1)NC(=O)[C@H](CCCNC(=N)N)NC(=O)[C@H](C)NC(=O)[C@H](CC(C)C)NC(=O)[C@H](CCCNC(=N)N)NC(=O)[C@H](CCC(N)=O)NC(=O)[C@@H](NC(=O)[C@H](C)NC(=O)[C@@H]1CSSC[C@H](NC(=O)[C@@H](N)CCCCNC(=O)COCCOCCNC(=O)CC[C@H](NC(=O)CCCCCCCCCCCCCCCCCCC(=O)O)C(=O)O)C(=O)N[C@@H](CC(N)=O)C(=O)N[C@@H]([C@@H](C)O)C(=O)N[C@@H](C)C(=O)N[C@@H]([C@@H](C)O)C(=O)N1)[C@@H](C)O)C(=O)N1CCC[C@H]1C(=O)N[C@@H](CO)C(=O)N[C@@H](CO)C(=O)N[C@H](C(=O)N1CCC[C@H]1C(=O)N[C@H](C(=O)NCC(=O)N[C@@H](CO)C(=O)N[C@@H](CC(N)=O)C(=O)N[C@H](C(=O)N[C@@H](Cc1ccc(O)cc1)C(N)=O)[C@@H](C)O)C(C)C)[C@@H](C)O
notes: analogue of human amylin; also called compound 64
B3: N^ε1-[2-[2-[2-[[(4S)-4-carboxy-4-(19-carboxynonadecanoylamino)butanoyl]amino]ethoxy]ethoxy]acetyl]-[Arg17,Pro21,Pro27,Pro31,His35]-h-amylin (peptide)
peptide: K([AEEA-γGlu-C20 diacid])CNTATCATQRLANFLRHSSPNFGAIPSSTPVGSHTY-NH2
modifications: disulfide 2-7; N-terminus assumed
SMILES: CC[C@H](C)[C@H](NC(=O)[C@H](C)NC(=O)CNC(=O)[C@H](Cc1ccccc1)NC(=O)[C@H](CC(N)=O)NC(=O)[C@@H]1CCCN1C(=O)[C@H](CO)NC(=O)[C@H](CO)NC(=O)[C@H](Cc1c[nH]cn1)NC(=O)[C@H](CCCNC(=N)N)NC(=O)[C@H](CC(C)C)NC(=O)[C@H](Cc1ccccc1)NC(=O)[C@H](CC(N)=O)NC(=O)[C@H](C)NC(=O)[C@H](CC(C)C)NC(=O)[C@H](CCCNC(=N)N)NC(=O)[C@H](CCC(N)=O)NC(=O)[C@@H](NC(=O)[C@H](C)NC(=O)[C@@H]1CSSC[C@H](NC(=O)[C@@H](N)CCCCNC(=O)COCCOCCNC(=O)CC[C@H](NC(=O)CCCCCCCCCCCCCCCCCCC(=O)O)C(=O)O)C(=O)N[C@@H](CC(N)=O)C(=O)N[C@@H]([C@@H](C)O)C(=O)N[C@@H](C)C(=O)N[C@@H]([C@@H](C)O)C(=O)N1)[C@@H](C)O)C(=O)N1CCC[C@H]1C(=O)N[C@@H](CO)C(=O)N[C@@H](CO)C(=O)N[C@H](C(=O)N1CCC[C@H]1C(=O)N[C@H](C(=O)NCC(=O)N[C@@H](CO)C(=O)N[C@@H](Cc1c[nH]cn1)C(=O)N[C@H](C(=O)N[C@@H](Cc1ccc(O)cc1)C(N)=O)[C@@H](C)O)C(C)C)[C@@H](C)O
notes: analogue of human amylin; also called compound 57
B4: N^ε1-[2-[2-[2-[[(4S)-4-carboxy-4-(19-carboxynonadecanoylamino)butanoyl]amino]ethoxy]ethoxy]acetyl]-[Arg17,Pro21,Pro27,Pro28,Pro34]-h-amylin (peptide)
peptide: K([AEEA-γGlu-C20 diacid])CNTATCATQRLANFLRHSSPNFGAIPPSTNVGPNTY-NH2
modifications: disulfide 2-7; N-terminus assumed
SMILES: CC[C@H](C)[C@H](NC(=O)[C@H](C)NC(=O)CNC(=O)[C@H](Cc1ccccc1)NC(=O)[C@H](CC(N)=O)NC(=O)[C@@H]1CCCN1C(=O)[C@H](CO)NC(=O)[C@H](CO)NC(=O)[C@H](Cc1c[nH]cn1)NC(=O)[C@H](CCCNC(=N)N)NC(=O)[C@H](CC(C)C)NC(=O)[C@H](Cc1ccccc1)NC(=O)[C@H](CC(N)=O)NC(=O)[C@H](C)NC(=O)[C@H](CC(C)C)NC(=O)[C@H](CCCNC(=N)N)NC(=O)[C@H](CCC(N)=O)NC(=O)[C@@H](NC(=O)[C@H](C)NC(=O)[C@@H]1CSSC[C@H](NC(=O)[C@@H](N)CCCCNC(=O)COCCOCCNC(=O)CC[C@H](NC(=O)CCCCCCCCCCCCCCCCCCC(=O)O)C(=O)O)C(=O)N[C@@H](CC(N)=O)C(=O)N[C@@H]([C@@H](C)O)C(=O)N[C@@H](C)C(=O)N[C@@H]([C@@H](C)O)C(=O)N1)[C@@H](C)O)C(=O)N1CCC[C@H]1C(=O)N1CCC[C@H]1C(=O)N[C@@H](CO)C(=O)N[C@H](C(=O)N[C@@H](CC(N)=O)C(=O)N[C@H](C(=O)NCC(=O)N1CCC[C@H]1C(=O)N[C@@H](CC(N)=O)C(=O)N[C@H](C(=O)N[C@@H](Cc1ccc(O)cc1)C(N)=O)[C@@H](C)O)C(C)C)[C@@H](C)O
notes: analogue of human amylin; also called compound 55
B5: N^ε1-[2-[2-[2-[[(4S)-4-carboxy-4-(19-carboxynonadecanoylamino)butanoyl]amino]ethoxy]ethoxy]acetyl]-[Arg17,Pro21,Pro27,Glu35]-h-amylin (peptide)
peptide: K([AEEA-γGlu-C20 diacid])CNTATCATQRLANFLRHSSPNFGAIPSSTNVGSETY-NH2
modifications: disulfide 2-7; N-terminus assumed
SMILES: CC[C@H](C)[C@H](NC(=O)[C@H](C)NC(=O)CNC(=O)[C@H](Cc1ccccc1)NC(=O)[C@H](CC(N)=O)NC(=O)[C@@H]1CCCN1C(=O)[C@H](CO)NC(=O)[C@H](CO)NC(=O)[C@H](Cc1c[nH]cn1)NC(=O)[C@H](CCCNC(=N)N)NC(=O)[C@H](CC(C)C)NC(=O)[C@H](Cc1ccccc1)NC(=O)[C@H](CC(N)=O)NC(=O)[C@H](C)NC(=O)[C@H](CC(C)C)NC(=O)[C@H](CCCNC(=N)N)NC(=O)[C@H](CCC(N)=O)NC(=O)[C@@H](NC(=O)[C@H](C)NC(=O)[C@@H]1CSSC[C@H](NC(=O)[C@@H](N)CCCCNC(=O)COCCOCCNC(=O)CC[C@H](NC(=O)CCCCCCCCCCCCCCCCCCC(=O)O)C(=O)O)C(=O)N[C@@H](CC(N)=O)C(=O)N[C@@H]([C@@H](C)O)C(=O)N[C@@H](C)C(=O)N[C@@H]([C@@H](C)O)C(=O)N1)[C@@H](C)O)C(=O)N1CCC[C@H]1C(=O)N[C@@H](CO)C(=O)N[C@@H](CO)C(=O)N[C@H](C(=O)N[C@@H](CC(N)=O)C(=O)N[C@H](C(=O)NCC(=O)N[C@@H](CO)C(=O)N[C@@H](CCC(=O)O)C(=O)N[C@H](C(=O)N[C@@H](Cc1ccc(O)cc1)C(N)=O)[C@@H](C)O)C(C)C)[C@@H](C)O
notes: analogue of human amylin; also called compound 26
B6: N^ε1-[2-[2-[2-[[(4S)-4-carboxy-4-(19-carboxynonadecanoylamino)butanoyl]amino]ethoxy]ethoxy]acetyl]-[Arg17,Pro21,Pro27,Pro31]-h-amylin (peptide)
peptide: K([AEEA-γGlu-C20 diacid])CNTATCATQRLANFLRHSSPNFGAIPSSTPVGSNTY-NH2
modifications: disulfide 2-7; N-terminus assumed
SMILES: CC[C@H](C)[C@H](NC(=O)[C@H](C)NC(=O)CNC(=O)[C@H](Cc1ccccc1)NC(=O)[C@H](CC(N)=O)NC(=O)[C@@H]1CCCN1C(=O)[C@H](CO)NC(=O)[C@H](CO)NC(=O)[C@H](Cc1c[nH]cn1)NC(=O)[C@H](CCCNC(=N)N)NC(=O)[C@H](CC(C)C)NC(=O)[C@H](Cc1ccccc1)NC(=O)[C@H](CC(N)=O)NC(=O)[C@H](C)NC(=O)[C@H](CC(C)C)NC(=O)[C@H](CCCNC(=N)N)NC(=O)[C@H](CCC(N)=O)NC(=O)[C@@H](NC(=O)[C@H](C)NC(=O)[C@@H]1CSSC[C@H](NC(=O)[C@@H](N)CCCCNC(=O)COCCOCCNC(=O)CC[C@H](NC(=O)CCCCCCCCCCCCCCCCCCC(=O)O)C(=O)O)C(=O)N[C@@H](CC(N)=O)C(=O)N[C@@H]([C@@H](C)O)C(=O)N[C@@H](C)C(=O)N[C@@H]([C@@H](C)O)C(=O)N1)[C@@H](C)O)C(=O)N1CCC[C@H]1C(=O)N[C@@H](CO)C(=O)N[C@@H](CO)C(=O)N[C@H](C(=O)N1CCC[C@H]1C(=O)N[C@H](C(=O)NCC(=O)N[C@@H](CO)C(=O)N[C@@H](CC(N)=O)C(=O)N[C@H](C(=O)N[C@@H](Cc1ccc(O)cc1)C(N)=O)[C@@H](C)O)C(C)C)[C@@H](C)O
notes: analogue of human amylin; also called compound 49

Target: T1, human calcitonin receptor
Test: cell-based or functional assay

Row | Binder | hCTR funct. EC50 [nM]
1 | B1 | 4.76
2 | B2 | 22.9
3 | B3 | 3.12
4 | B4 | 0.731
5 | B5 | 6.34
6 | B6 | 2.39
